Results from the supplement of paper PMC7877785.
± gives the uncertainty stated by the source.

Experiment: self-splicing fitness, log relative to wild type (ln ratio); higher = more splicing; Tetrahymena group I intron in knt gene, E. coli kanamycin selection, DiMSum; sequences stand for … in CUCUCU…GGAGGGAAAAGUUAUCAGGCAUGCACCUGGUAGCUAGUCUUUAAACCAAUAGAUUGCAUCGGUUUAAAAGGCAAGACCGUCAAAUUGCGGGAAAGGGGUCAACAGCCGUUCAGUACCAAGUCUCAGGGGAAACUUUGAGAUGGCCUUGCAAAGGGUAUGGUAAUAAGCUGACGGACAUGGUCCUAACCACGCAGCCAAGUCCUAAGUCAACAGAUCUUCUGUUGAUAUGGAUGCAGUUCACAGACUAAAUGUCGGUCGGGGAAGAUGUAUUCUUCUCAUAAGAUAUAGUCGGACCUCUCCUUAAUGGGAGCUAGCGGAUGAAGUGAUGCAACACUGGAGCCGCUGGGAACUAAUUUGUAUGCGAAAGUAUAUUGAUUAGUUUUGGAGUACUCGUGGUCG
Outline: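 The eight P1ex-region nucleotides of an intron in the knt kanamycin-resistance gene on pET-22b(+) were all randomised and the library put into E. coli BL21(DE3). Six replicate transformations were grown overnight at 37°C or 30°C on LB agar with or without 25 μg/mL kanamycin, together with 100 μg/mL carbenicillin, 50 μM IPTG and 0.2% rhamnose. Colonies were pooled and amplicon-sequenced on an Illumina HiSeq 2500. Fitness from DiMSum is the error-weighted combination of wild-type-normalised replicate fold changes, kanamycin over none.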

Sequence	self-splicing fitness (ln) (30 °C)	self-splicing fitness (ln) (37 °C)
AACUAGCAAUAUUACGCAAA	-2.38 ± 0.13	-1.72 ± 0.1
GAUCAGCAAUAUUACGGUAG	-0.683 ± 0.084	0.269 ± 0.1
CGACAGCAAUAUUACGCGGG	-2.71 ± 0.12	-2.39 ± 0.15
AGUCAGCAAUAUUACGAUUA	0.011 ± 0.11	-0.381 ± 0.15
AACUAGCAAUAUUACGUGGA	-2.28 ± 0.11	-1.61 ± 0.1
CUGAAGCAAUAUUACGAUAU	-3.39 ± 0.16	-1.27 ± 0.19
AUUAAGCAAUAUUACGGCUG	-0.405 ± 0.083	-0.233 ± 0.1
GGGUAGCAAUAUUACGGAGA	-4.31 ± 0.3	-3.19 ± 0.23
UAGGAGCAAUAUUACGGGAU	-3.21 ± 0.35	-2.27 ± 0.37
GAAUAGCAAUAUUACGUGCU	-2.04 ± 0.14	-0.626 ± 0.12
UGAGAGCAAUAUUACGGUAU	-3.07 ± 0.2	-1.53 ± 0.3
GAUAAGCAAUAUUACGUGUA	-2.1 ± 0.14	-1.04 ± 0.14
GAGAAGCAAUAUUACGUGAU	-1.81 ± 0.084	-0.801 ± 0.11
ACCGAGCAAUAUUACGCGUG	-1.41 ± 0.079	-0.71 ± 0.08
UUACAGCAAUAUUACGAUGG	-1.16 ± 0.062	-0.0316 ± 0.086
GCAUAGCAAUAUUACGCGGA		-1.69 ± 0.31
CCCCAGCAAUAUUACGCGGG	-4.19 ± 0.18	-3.1 ± 0.23
CUCAAGCAAUAUUACGUUCA	-2.07 ± 0.15	-1.46 ± 0.14
AUCAAGCAAUAUUACGGCCC	-0.747 ± 0.31	
CCAAAGCAAUAUUACGGAUC	-3.45 ± 0.23	-2.47 ± 0.39

Sequence	self-splicing fitness (ln) (30 °C)	self-splicing fitness (ln) (37 °C)
AUGCAGCAAUAUUACGUUAA	-2.58 ± 0.1	-1.71 ± 0.094
GAGCAGCAAUAUUACGACGC	0.00947 ± 0.079	0.534 ± 0.1
ACUUAGCAAUAUUACGUCGA	-2.06 ± 0.16	-1.23 ± 0.16
AUUGAGCAAUAUUACGAACU	-1.9 ± 0.23	-0.643 ± 0.2
CACAAGCAAUAUUACGCACC	-3.98 ± 0.37	-2.4 ± 0.3
UUCCAGCAAUAUUACGUGCA	-1.44 ± 0.1	-1.11 ± 0.087
CGUAAGCAAUAUUACGGUGU	-4.11 ± 0.25	-3.24 ± 0.21
AGACAGCAAUAUUACGAAGG	-3.88 ± 0.18	-2.75 ± 0.23
ACAAAGCAAUAUUACGUUGA	-1.49 ± 0.079	-1.24 ± 0.089
AGCUAGCAAUAUUACGGCUG	-0.696 ± 0.11	-0.185 ± 0.14
AUGGAGCAAUAUUACGGGCU		-1.55 ± 0.41
GUCUAGCAAUAUUACGUCUG	-2.49 ± 0.14	-1.51 ± 0.13
AAGCAGCAAUAUUACGACCC	-1.78 ± 0.14	-0.112 ± 0.15
AUCGAGCAAUAUUACGUGAG	-1.78 ± 0.11	-1.53 ± 0.15
UCUUAGCAAUAUUACGCCCA		-0.128 ± 0.47
CUGGAGCAAUAUUACGGCGG	-0.649 ± 0.16	-1.44 ± 0.26
CAACAGCAAUAUUACGCAAA	-3.57 ± 0.33	-2.37 ± 0.14
GAAUAGCAAUAUUACGACUC	-0.601 ± 0.13	-1.34 ± 0.18
CAACAGCAAUAUUACGUCCG	-0.0787 ± 0.06	0.513 ± 0.076
